Assay results reported in IntAct's records for PubMed 25009770.

How the values were obtained:
psmd9_human PSMD9 [1] = target: T1, psmd9_human PSMD9 (UniProt O00233)
T1 sequence: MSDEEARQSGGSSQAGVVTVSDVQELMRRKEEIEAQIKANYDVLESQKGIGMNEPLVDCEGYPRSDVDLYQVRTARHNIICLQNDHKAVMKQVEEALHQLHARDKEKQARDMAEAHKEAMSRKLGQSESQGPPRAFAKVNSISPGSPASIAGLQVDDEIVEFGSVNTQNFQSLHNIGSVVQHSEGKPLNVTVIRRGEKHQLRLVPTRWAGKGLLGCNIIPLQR

psmd9_human PSMD9 [2] = target: T1, psmd9_human PSMD9; remark: listed apart in the source

Substance: Small ribosomal subunit protein uS11 (Homo sapiens) (from UniProt P62263) L151G
- effect of a mutation on the interaction (psmd9_human PSMD9 [1]): decreasing interaction strength
- effect of a mutation on the interaction (psmd9_human PSMD9 [2]): disrupting interaction strength
